The record followed here is patent publication US20230084099A1 (NATIONAL UNIVERSITY CORPORATION TOKAI NATIONAL HIGHER …, published 2023).

T1: human MEFLIN expressed on cells (human, UniProt O14498 19-428)
T1 sequence (looked up): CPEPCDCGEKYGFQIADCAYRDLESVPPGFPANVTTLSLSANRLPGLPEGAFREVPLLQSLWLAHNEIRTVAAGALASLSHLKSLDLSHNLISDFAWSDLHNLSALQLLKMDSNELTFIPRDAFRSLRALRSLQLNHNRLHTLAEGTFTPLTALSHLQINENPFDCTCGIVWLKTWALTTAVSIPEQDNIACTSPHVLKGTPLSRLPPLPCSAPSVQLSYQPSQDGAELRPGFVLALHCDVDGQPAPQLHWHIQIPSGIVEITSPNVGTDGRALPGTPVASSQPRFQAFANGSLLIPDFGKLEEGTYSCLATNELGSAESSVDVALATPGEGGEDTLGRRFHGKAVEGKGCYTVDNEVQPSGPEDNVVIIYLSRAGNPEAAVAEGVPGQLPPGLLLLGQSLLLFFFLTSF

T2: human MEFLIN protein (human, UniProt O14498 19-428, limits assumed)
T2 construct: In the Western blot the protein and its fragments carried a C-terminal G196 tag and His tag and were expressed in HEK293 cells; also called hMEFLIN; ISLR
T2 sequence (looked up): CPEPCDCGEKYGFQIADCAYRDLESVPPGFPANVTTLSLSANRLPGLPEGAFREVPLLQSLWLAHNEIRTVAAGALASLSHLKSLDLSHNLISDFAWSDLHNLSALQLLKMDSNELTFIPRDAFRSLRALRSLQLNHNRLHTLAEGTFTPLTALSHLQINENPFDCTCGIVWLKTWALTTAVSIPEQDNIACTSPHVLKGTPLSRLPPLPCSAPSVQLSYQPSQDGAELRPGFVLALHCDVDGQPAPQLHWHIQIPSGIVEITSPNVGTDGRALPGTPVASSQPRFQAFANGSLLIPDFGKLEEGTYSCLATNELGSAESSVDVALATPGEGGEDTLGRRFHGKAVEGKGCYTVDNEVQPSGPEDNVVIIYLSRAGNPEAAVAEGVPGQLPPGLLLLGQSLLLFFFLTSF

B1: ADC27-7 (other, DAR 2.4)
VH: EVQLVESGGSLVQPGGSLKLSCVASGYTFSKYWMDWVRQTPGKSLEWIGEINTDGSKTNYAPSIKDRFTISRDNAKSTLYLQMSNVKSDDTAIYYCTNWEDYWGQGVMVTVSS
VL: DVVMTQTPPSLSVAIGQSVSISCKSSQSLVYSDGKTYLHWLLQSSGRSPKRLIYQVSNLDSGVPDRFSGTGSQKDFTLKISRVEAKDLGVYYCAQTTHFPYTFGAGTKLELK
modifications: MMAE drug-linker on cysteine thiols exposed by DTT reduction (positions not stated)
B2: 11-8 antibody (antibody, V domains shown)
VH: VQLQESGPELVKPGASVKISCKASGYSFTDYIILWVKQSHGKSLEWIGNINPYSGNTRYNLKFKGKATLTVDKSSSTAYMQLNSLTSEDSAVYYCARDGDDYAMDYWGQGTSVTVSS
VL: DIVITQTPLSLPVSLGDQASISCRSSQSIVHSNGNTYLEWYLQKPGQSPRLLIYKVSNRFSGVPDRFSGSGSGTDFTLKISRVETEDLGVYYCFQGSHVPWTFGGGTKLEIK
notes: Mouse hybridoma monoclonal antibody; used as hybridoma culture supernatant; also called clone 11-8
B3: 27-8 antibody (antibody, V domains shown)
VH: VQLTESGPGLVKPSQSLSLTCSVTGYTITSGYDWSWIRKFPGNKMEWMGYITYSGSTNYNPSLKSRISITRDTSKNQFFLQLNSVTTEDTATYYCSRDIAAISFAYWGQGTLVTVSS
VL: DVVMTQTPVAQPVTLGDQASISCRSSQSLVHSNGNTYLEWYLQKPGQSPQLLIYKVSNRFSGVPDRFIGSGSGSDFTLKISRVEPEDLGVYYCFQATHVPLTFGSGTKLEIK
notes: Rat hybridoma monoclonal antibody; used as hybridoma culture supernatant; also called clone 27-8
B4: 46-3 antibody (antibody, V domains shown)
VH: VQLKESGPGLVKPSQSLSLTCSVTGYTITSGYDWSWIRKFPGNKMEWMGFITYSGSTHHNPSLKSRISITRDTSRNQFFLQLNSVTTEDSATYYCARDFSGISFAYWGQGTLVSVSS
VL: DVVLTQTPVAQPVTLGDQVSISCRSSQSLVHSNGNTYLEWYLQKPGQSPQLLIYKVSNRFSGVPDRFIGSGSGSDFTLKISRVEPEDLGIYYCFQATHDPLTFGSGTKLEIK
notes: Rat hybridoma monoclonal antibody; used as hybridoma culture supernatant; also called clone 46-3
B5: 32-1 antibody (antibody, V domains shown)
VH: VQLQQSGGDLVKPGGSLKLSCAASGFTFSSYGMSWVRQTPDKRLEWVATISSGGSYTYYPDSVKGRFTISRDNAKNTLYLQMSSLKSEDTAMYYCVIDYDVMDYWGQGTSVTVSS
VL: DIVMTQTPSSLAVSAGEKVTMSCKSSQSLLNSRTRKNYLAWYQQKPGQSPKLLIYWASTRESGVPDRFTGSGSGTDFTLTISSVQAEDLAVYYCKQSYNLRTFGGGTKLEIK
notes: Mouse hybridoma monoclonal antibody; used as hybridoma culture supernatant; also called clone 32-1
B6: 34-4 antibody (antibody, V domains shown)
VH: QVQLMESGPGLVQPSQTLSLTCTVSGFSLTSYDMHWVRQPPGKGLEWMGVIWGNGNTHYNSALKSRLSISRDTSKSQVFLKMNSLQTENTAIYFCTGGYFYWGQGVTVTVSS
VL: DVVMTQTPVSLSVAIGHPASISCKSSQSLVGTGGKTYLSWLLQRPGQSPKRLIYLVSKLDSGIPDRFSGSGSETDFTLKISRVEADDLGVYYCLQGTHFPFTFGSGTQLEMK
notes: Rat hybridoma monoclonal antibody; used as hybridoma culture supernatant; also called clone 34-4
B7: 27-7 antibody (antibody, V domains shown)
VH: EVQLVESGGSLVQPGGSLKLSCVASGYTFSKYWMDWVRQTPGKSLEWIGEINTDGSKTNYAPSIKDRFTISRDNAKSTLYLQMSNVKSDDTAIYYCTNWEDYWGQGVMVTVSS
VL: DVVMTQTPPSLSVAIGQSVSISCKSSQSLVYSDGKTYLHWLLQSSGRSPKRLIYQVSNLDSGVPDRFSGTGSQKDFTLKISRVEAKDLGVYYCAQTTHFPYTFGAGTKLELK
notes: Rat hybridoma monoclonal antibody; used as hybridoma culture supernatant; also called clone 27-7
B8: 35-9 antibody (antibody, V domains shown)
VH: QVQLTESGPGLVQPSQTLSLTCTVSGFSLSSYGVIWVRQPPGKGLEWMGVIWGNGNTNYNSTLKSRLSISRDTSKSQVFLKMNILQTEDTAMYFCARWESGDYWGQGVTVTVSS
VL: DVVMTQTPVSLSVAVGQPASISCTSSQSLVGSGGKTYLNWFLQRPGQSPKRLISLVSKLDSGIPDRFSGSGSETDFTLKISRVEADDLGVYYCLQGTHFPWTFGGGTKQELK
notes: Rat hybridoma monoclonal antibody; used as hybridoma culture supernatant; also called clone 35-9

The target of the first test is T1, human MEFLIN expressed on cells. Description: cell-based or functional assay.
For B1, the “EC50 of cell proliferation inhibition (MTT test)” value came to 0.72 nM.

For another test, the target named is T2, human MEFLIN protein. In words: Western blotting on tagged human MEFLIN fragments. On the procedure:
The human embryonic kidney (HEK293) cell line was allowed to transiently express pRP-CMV vector having an insert of DNA encoding the human MEFLIN protein or a fragment thereof by lipofection, and a cell lysate was prepared. […] SDS-PAGE was performed using the cell lysate, and the electrophoresed protein was transferred to a PVDF membrane. The PVDF membrane was reacted at ordinary temperature for 1 hour using 5% skimmed milk/PBS. The primary antibody used was a culture supernatant of each hybridoma clone diluted 50-fold with PBS. For a positive subject, an anti-G196 antibody was used as a primary antibody. The PVDF membrane was reacted overnight at 4° C. in the presence of the primary antibody. Then, the PVDF membrane was washed with 0.05% Tween/PBS. The secondary antibody used was an anti-rat or anti-mouse antibody-horseradish peroxidase (HRP) conjugate. The secondary antibody was diluted 1000-fold with PBS and reacted with the PVDF membrane at ordinary temperature for 45 minutes. After washing with 0.05% Tween/PBS, the HRP label on the antibody was allowed to emit light using ECL (GE Healthcare Japan Corp.), and an image was captured into a computer using a CCD imager (Las 4000, GE Healthcare Japan Corp.).
For orientation: Immunoblotting shows a protein as a band on a membrane.
In the case of B2, the binding result is recorded as “binds”.
B3: the binding result is listed as “binds”.
Turning to B4, the binding result was “binds”.
On the same count and under the same terms, next, B5: “binds”.
Still for that read-out and setting: next, B6: “binds”; B7: “binds”; B8: “binds”.
